This is an account of results in paper PMC10516418 (2023).

Common to all, as to experiment: BLI
In experiment [1] the target is v3B_Δ9.
The target of experiment [2] is v3B_Δ18.
Experiment [3] has as its target v3B_Δ15.

B1: MPE8 antigen-binding fragment (Fab) (Fab, V domains shown)
VH: EVQLVESGGGLVKPGGSLRLSCAASGFTFSSYSMNWVRQAPGKGLEWVSSISASSSYSDYADSAKGRFTISRDNAKTSLFLQMNSLRAEDTAIYFCARARATGYSSITPYFDIWGQGTLVTVSS
VL: QSVVTQTPSVSGAPGQRVTISCTGSSSNIGAGYDVHWYQQLPGTAPKLLIYDNNNRPSGVPDRFSASKSGTSASLAITGLQAEDEADYYCQSYDRNLSGVFGTGTKVTVL
As to B1, the Kd (as a rule, the constant that tells how readily two partners part at equilibrium) in experiment [1] amounted to 87 nM; in experiment [2] it was 690 nM; in experiment [3], 62 nM.
